T1: Kap114p (Y370A) (S. cerevisiae, UniProt P53067 1-1004, Y370A)
T1 construct: Kap114p, S. cerevisiae, full length with Y370A; also called GST-Kap114p (Y370A); source: E. coli Rosetta, purified (GST resin, MonoQ, Superdex 200)
T1 sequence (looked up): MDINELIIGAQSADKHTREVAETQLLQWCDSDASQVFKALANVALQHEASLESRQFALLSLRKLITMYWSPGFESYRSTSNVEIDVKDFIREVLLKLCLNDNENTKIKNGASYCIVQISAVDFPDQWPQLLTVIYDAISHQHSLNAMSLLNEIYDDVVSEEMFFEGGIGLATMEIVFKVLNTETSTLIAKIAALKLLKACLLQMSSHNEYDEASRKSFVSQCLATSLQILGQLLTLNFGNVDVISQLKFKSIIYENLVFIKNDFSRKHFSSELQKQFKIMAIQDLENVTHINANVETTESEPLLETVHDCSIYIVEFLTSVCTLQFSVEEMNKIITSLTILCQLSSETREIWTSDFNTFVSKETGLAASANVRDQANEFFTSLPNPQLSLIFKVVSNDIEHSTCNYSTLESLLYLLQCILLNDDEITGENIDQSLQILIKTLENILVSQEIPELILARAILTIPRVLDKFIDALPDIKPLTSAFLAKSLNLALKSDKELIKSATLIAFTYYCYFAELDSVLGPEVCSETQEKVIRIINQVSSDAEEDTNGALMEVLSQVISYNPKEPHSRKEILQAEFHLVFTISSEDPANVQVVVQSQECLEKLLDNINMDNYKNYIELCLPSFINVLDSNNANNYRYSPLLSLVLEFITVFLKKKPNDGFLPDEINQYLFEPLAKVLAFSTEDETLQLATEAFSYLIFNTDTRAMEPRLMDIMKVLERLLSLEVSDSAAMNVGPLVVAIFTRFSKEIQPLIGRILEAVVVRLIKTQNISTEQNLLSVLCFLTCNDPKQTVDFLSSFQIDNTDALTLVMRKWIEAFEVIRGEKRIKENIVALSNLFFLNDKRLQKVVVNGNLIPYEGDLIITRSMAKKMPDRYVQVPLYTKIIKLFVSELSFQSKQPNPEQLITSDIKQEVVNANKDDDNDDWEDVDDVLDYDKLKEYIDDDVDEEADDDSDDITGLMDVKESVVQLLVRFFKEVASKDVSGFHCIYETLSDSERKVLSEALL

T2: Kap114pΔY939 (S. cerevisiae, UniProt P53067 1-1004, ΔY939)
T2 construct: Kap114p, S. cerevisiae, full length with residue Y939 deleted; also called Kap114p(DY939); source: E. coli (Rosetta strain), purified (GST resin, MonoQ, Superdex 200)
T2 sequence (looked up): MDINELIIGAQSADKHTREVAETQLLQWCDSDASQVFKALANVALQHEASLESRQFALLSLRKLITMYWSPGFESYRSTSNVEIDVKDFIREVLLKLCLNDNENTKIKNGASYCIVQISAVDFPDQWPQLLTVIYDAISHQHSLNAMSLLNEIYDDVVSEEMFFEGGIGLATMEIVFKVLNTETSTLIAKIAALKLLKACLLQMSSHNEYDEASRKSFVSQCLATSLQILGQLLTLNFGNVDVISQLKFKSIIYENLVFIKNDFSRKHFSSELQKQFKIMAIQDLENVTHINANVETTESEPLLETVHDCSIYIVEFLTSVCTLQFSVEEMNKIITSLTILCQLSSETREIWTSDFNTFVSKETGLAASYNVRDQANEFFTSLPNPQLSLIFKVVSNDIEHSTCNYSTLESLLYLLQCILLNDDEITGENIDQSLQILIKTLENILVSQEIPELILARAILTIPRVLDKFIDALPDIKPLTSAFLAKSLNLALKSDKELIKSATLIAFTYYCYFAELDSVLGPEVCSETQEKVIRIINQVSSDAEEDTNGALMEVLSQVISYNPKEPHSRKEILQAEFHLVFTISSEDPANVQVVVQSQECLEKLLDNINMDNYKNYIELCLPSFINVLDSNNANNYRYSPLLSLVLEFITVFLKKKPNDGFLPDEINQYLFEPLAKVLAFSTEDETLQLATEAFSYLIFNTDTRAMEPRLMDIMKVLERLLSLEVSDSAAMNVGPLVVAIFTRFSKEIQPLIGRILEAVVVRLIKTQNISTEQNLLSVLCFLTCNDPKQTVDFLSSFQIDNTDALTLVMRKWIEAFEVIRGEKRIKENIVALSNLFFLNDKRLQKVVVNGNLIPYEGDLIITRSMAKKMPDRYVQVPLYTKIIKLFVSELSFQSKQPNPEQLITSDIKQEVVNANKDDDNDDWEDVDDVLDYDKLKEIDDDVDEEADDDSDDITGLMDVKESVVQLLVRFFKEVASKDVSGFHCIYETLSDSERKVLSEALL

B1: yTBP^C wild type (core domain of yeast TATA-box binding protein, a.a. 61-240) (domain or fragment, S. cerevisiae, UniProt P13393 61-240, looked up)
chain: SGIVPTLQNIVATVTLGCRLDLKTVALHARNAEYNPKRFAAVIMRIREPKTTALIFASGKMVVTGAKSEDDSKLASRKYARIIQKIGFAAKFTDFKIQNIVGSCDVKFPIRLEGLAFSHGTFSSYEPELFPGLIYRMVKPKIVLLIFVSGKIVLTGAKQREEIYQAFEAIYPVLSEFRKM
notes: modified pET28a, 6xHis tag followed by a PreScission site; also called yTBPC WT; His-yTBP (61-240); source: E. coli Rosetta, purified (Ni-NTA, HiTrap SP, Superdex 75); not shown: His6, N-terminal, cleaved
B2: core domain of yTBP (a.a. 61-240) (domain or fragment, S. cerevisiae, UniProt P13393 61-240, looked up)
chain: B1 chain
notes: 61-240; also called yTBP^C; yTBPc; source: E. coli (Rosetta strain), purified (Ni-NTA, HiTrap SP, Superdex 75); not shown: 6xHis, N-terminal, cleaved

How the values were obtained:
Kap114p (Y370A) = target: T1, Kap114p (Y370A); assay: ITC; MicroCal iTC200, 25 °C, 20 mM HEPES pH 7.4, 150 mM NaCl; high concentration: 50 µM wild type or mutant Kap114p in the sample cell, 500 µM wild type or mutant yTBPC in the syringe; triplicate; details: both partners purified
Kap114pΔY939 = target: T2, Kap114pΔY939; assay: ITC; Kap114p (wild type or mutant) 50 uM in the sample cell, partner 500 uM in the syringe; 25 °C; 20 mM HEPES pH 7.4, 150 mM NaCl; triplicate; details: both partners purified

| Binder | Kd (Kap114p (Y370A)) [µM] | Kd (Kap114pΔY939) [µM] |
| --- | --- | --- |
| B1 | 0.02 | – |
| B2 | – | 0.0371 |
